We go through four molecules from patent publication US6544753 (MERCK, dated 2003).

The target of the test is T1, human GALR2 (human, UniProt O43603 1-387).
T1 sequence: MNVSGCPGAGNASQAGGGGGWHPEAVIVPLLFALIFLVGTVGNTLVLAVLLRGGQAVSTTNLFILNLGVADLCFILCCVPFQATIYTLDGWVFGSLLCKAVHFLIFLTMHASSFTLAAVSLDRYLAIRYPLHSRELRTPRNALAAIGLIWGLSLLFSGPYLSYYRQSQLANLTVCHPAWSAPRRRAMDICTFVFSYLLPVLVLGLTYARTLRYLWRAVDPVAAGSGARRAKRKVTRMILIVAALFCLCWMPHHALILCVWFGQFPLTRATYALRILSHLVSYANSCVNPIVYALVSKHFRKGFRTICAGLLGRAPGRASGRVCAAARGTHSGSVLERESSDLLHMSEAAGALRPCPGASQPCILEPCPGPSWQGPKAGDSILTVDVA
In words: cell-based or functional assay.

For the molecule M35 (peptide), the aequorin bioluminescence in 293-AEQ17 cells, EC50 turned out to be 44 nM. Turning to M40 (peptide), the aequorin bioluminescence in 293-AEQ17 cells, EC50 amounted to 8.8 nM. Next, WTLNSAGYLLGPHAIDNHRSFSDKHGLT (peptide, UniProt P10683 34-61, looked up) [rat Gal(2-29)]: 31 nM. The figure for TLNSAGYLLGPHAIDNHRSFSDKHGLT (peptide, UniProt P10683 35-61, looked up) [rat Gal (3-29)] is more than 10000 nM.
